Test results reported in patent US9789213B2, “EGFL7 targeting and/or binding polypeptides and methods for inhibiting angiogenesis” (LONDON HEALTH SCIENCES CENTRE RESEARCH INC., priority 2012, dated 2017).
Where no end group is shown, it is not given here. The star is where a group is joined. FITC = O=C1OC2(c3ccc(O)cc3Oc3cc(O)ccc32)c2ccc(NC(=S)*)cc21

target: T1, recombinant GST-EGFL7 protein (Homo sapiens, UniProt Q9UHF1); experiment: OBOC peptide library screen ('beads on a bead') with secondary cell-based screen; type: binding; conditions: hit beads from magnetic-bead screen and secondary cell-based screen
T1 construct: Magnetic nanobeads are then coated with full-length recombinant EGFL7; made in house; host or cells: Spodoptera frugiperda Sf21 (baculovirus)
T1 sequence (Q9UHF1 24-273): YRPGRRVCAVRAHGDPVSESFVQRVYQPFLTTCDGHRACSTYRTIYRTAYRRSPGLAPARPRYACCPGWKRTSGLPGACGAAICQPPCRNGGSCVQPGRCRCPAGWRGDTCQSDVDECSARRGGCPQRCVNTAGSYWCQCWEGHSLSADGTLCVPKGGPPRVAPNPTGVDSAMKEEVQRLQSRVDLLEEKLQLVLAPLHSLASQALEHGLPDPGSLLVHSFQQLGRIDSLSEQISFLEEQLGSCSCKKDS
Excerpt: The present invention also encompasses methods of screening polypeptides to identify those that interact with EGFL7 and modulate and EGFL7 activity and/or function. In a specific aspect, a combinatorial peptide library is screened using a “beads on a bead” approach, as set out in FIG. 1 and described in Cho et al., which is incorporated herein by reference in its entirety. […] Magnetic nanobeads are then coated with full-length recombinant EGFL7, are mixed with the peptide library, and the most highly interacting library bead “hits” are sorted using large format flow cytometry. An on-bead cell binding assay can then be used to validate the peptide hits using human endothelial cells. Validated hit peptides are then sequenced using an in-house MALDI-TOF/MS technique, and their binding affinity to EGFL7 is quantified using surface plasmon resonance (SPR) (Amadei et al. 2009, J. Mass Spectrometry, 45:241-51; U.S. Pat. Nos. 5,510,240; and 7,262,269, each of which is incorporated by reference herein in its entirety).
All fractions containing EGFL7 recombinant protein were pooled together. 30 μg of anti-GST antibody was mixed into the protein solution, and incubated with 370 mg of MagnaBind Protein A/G magnetic beads (Thermo Scientific) for 15 minutes at 4° C. After several washing with wash buffer, the proteins were released from the magnetic beads by boiling in SDS loading buffer, and analyzed by western blot using anti-EGFL7 polyclonal antibody (R&D Systems).
The OBOC peptide library beads were washed extensively using 70% ethanol, distilled water and binding buffer (50 mM Na2HPO4, 150 mM NaCl, 2 mM CaCl2, 0.5M L-Arginine, pH 7.4) before screening. The magnetic beads were mixed with the library beads in a glass vial, and incubated at 37° C. for 1 hour, A strong magnet was placed at the side of the vial, and the library was screened as described in Cho et al. Positive hits were pooled and washed extensively with ethanol and water. A secondary cell-based screen was performed using EGFL7-positive HT1080 fibrosarcoma cells expressing tdTomato, and EGFL7-negative MDA435 breast cancer cells expressing GFP as described in Cho et al. Hit beads were collected and peptides were sequenced on-bead using MALDI TOF MS/MS as described in Cho et al.
Recombinant EGFL7 protein was purified (FIGS. 2A and 2B) and conjugated onto magnetic beads. Western blot analysis was performed to show successful conjugation of purified EGFL7 onto magnetic beads using a polyclonal anti-EGFL7 antibody (FIG. 2C). EGFL7-conjugated magnetic beads were then mixed with a OBOC combinatorial peptide library, and positive hits were isolated using a strong neodynium magnet. […] Beads were examined under an inverted fluorescence microscope, and hit beads that strongly associated with red cells, but had little or no interaction with green cells were isolated manually.

Row | Substance | affinity for EGFL7 in OBOC peptide library screening
1 | DPYDHEFR (EGFL7 interacting peptide) | high affinity
2 | RYVDHEDW (EGFL7 interacting peptide) | high affinity
3 | SQSSMYPS (EGFL7 interacting peptide) | high affinity
4 | WYKLHPTM (EGFL7 interacting peptide) | high affinity

Second part, the substance after the results:

Row | affinity for EGFL7 in OBOC peptide library screening | Substance
5 | high affinity | AYYEEAYE (EGFL7 interacting peptide)
6 | high affinity | EWELHAEE (EGFL7 interacting peptide)
7 | high affinity | RYQLHHPR (EGFL7 interacting peptide)

system: HUVECs; experiment: Cell uptake of FITC-labelled peptide by HUVECs with or without EGFL7 siRNA knockdown, flow cytometry; type: cell-based, human; conditions: HUVECs treated with negative siRNA or EGFL7 siRNA; 1 mM, 1 hour at 4° C.
Procedure: EGFL7 knockdown in human umbilical vein endothelial cells (HUVECs) was achieved using a siRNA targeting the exon 5 of the protein and INTERFERin transfection reagent (HUVECs-si). Wildtype HUVECs and HUVECs-si cells were seeded onto separate wells in a 6-well tissue culture plate to approximately 80% confluency. The cells were incubated overnight in DMEM containing 10% fetal bovine serum and Pen/Strep at 37° C. with 5% CO2. The media in each well were removed and replaced with pre-chilled PBS. FITC-E7-p72 (FITC-HMYFLLGH; SEQ ID NO: 20) was added onto cells to a final concentration of 1 mM and incubated for 1 hour at 4° C. Cells were detached from the well with EDTA, washed three times with PBS, and fixed with 4% formaldehyde. The uptake of FITC-labeled peptides was analyzed by flow cytometry.

Row | Substance | uptake of fluorescein-labelled peptide
8 | {FITC}-HMYFLLGH [FITC-E7-p72] | dependent on EGFL7 expression
